Source: the supplement of paper PMC12667976

B1: library; numbered along this chain (parent)
chain: MATDAALRRLLRLHRTEIAVAVDSAFPLLHALADHDVVPEDKFQETLHLKEKEGCPQAFHALLSWLLTQDSTAILDFWRVLFKDYNLERYGRLQPILDSFPKDVDLSQPRKGRKPPAVPKALVPPPRLPTKRKASEEARAAAPAALTPRGTASPGSQLKAKPPKKPESSAEQQRLPLGNGIQTMSASVQRAVAMSSGDVPGARGAVEGILIQQVFESGGSKKCIQVGGEFYTPSKFEDSGSGKNKARSSSGPKPLVRAKGAQGAAPGGGEARLGQQGSVPAPLALPSDPQLHQKNEDECAVCRDGGELICCDGCPRAFHLACLSPPLREIPSGTWRCSSCLQATVQEVQPRAEEPRPQEPPVETPLPPGLRSAGEEVRGPPGEPLAGMDTTLVYKHLPAPPSAAPLPGLDSSALHPLLCVGPEGQQNLAPGARCGVCGDGTDVLRCTHCAAAFHWRCHFPAGTSRPGTGLRCRSCSGDVTPAPVEGVLAPSPARLAPGPAKDDTASHEPALHRDDLESLLSEHTFDGILQWAIQSMARPAAPFPS

Variants of: B1
Test: AIRE transcriptional activation functional score (insulin promoter-GFP; nonsense median 0, synonymous median 1) (normalised score); higher = higher AIRE activity (more reporter activation)
Conditions: with insulin promoter-GFP reporter in HEK293
Method: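 Deep mutational scan of full-length human AIRE (codon-optimized cDNA, DT-POPCode NNN libraries over three regions) integrated at a Bxb1 landing pad in HEK293 cells carrying an insulin core promoter-GFP reporter at a Flp-In site. Cells were sorted for the top 10% GFP about 14 days after transfection. Variant frequency log-ratios (select vs non-select, TileSeq) were rescaled so that the nonsense median is 0 and the synonymous median is 1, then averaged over biological replicates.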

AIRE transcriptional activation functional score, by site and new letter:
Q213: R 0.637, N 0.805, P 0.531, T 0.965, W -1.06, V -0.393, Y 1.23, S 0.639
F230: E 0.377, D 0.723, Y 0.502, P 0.293, A 0.596, H 0.48, M 0.801, V 0.617, C 0.611, S 0.473, L 0.774, T 0.761, Q 0.665, R 0.603, I 0.507, K 0.376, W 0.97, N 0.425, G 0.617
C223: G 0.803, F 0.324, P 0.562, S 0.477, M 0.937, W -0.0978, L 0.844, H 0.784, N 0.407, T 1.15, A 0.737, K 0.604, Q 0.474, V 0.923, E 0.793, Y 0.577, D 0.503, R 0.797, I 0.0416
V214: E 0.383, C 1.01, S 0.447, I 0.735, M 0.284, W 0.402, G 0.556, P 0.238, Y 1.25, H 0.137, A 0.717, L 0.413, R 0.66, F 1.01
G228: E 0.668, W -0.356, F 0.331, H -2, S 0.591, K 0.799, V 0.421, N 1.51, D 1.05, R 1.26, Y 0.381, C 0.71, Q -1.12, L -1.11, I -0.341, A 0.509, T 1.57, P 0.904
G227: E 0.368, W 0.742, V 0.378, A 0.503, H 0.263, R 0.425, Q 1.02, S 0.225, Y 0.111, C 0.85, N 0.587, L 0.445, M -1.01, F -0.195, T -0.68, K 0.245, I -0.209, P 0.459
F215: T -0.146, M 0.136, I 0.64, C 0.382, D 0.909, P 0.715, V 0.289, H 0.814, R 0.351, L 0.751, K -0.187, E 0.601, G 0.391, W 0.878, Y 0.54, A 0.568, S 0.474
S217: E 0.8, Q 0.502, W 0.119, V 0.98, K 0.417, A 0.4, R 0.942, I 0.549, D 1.57, G 1.1, C 1.16, M 0.709, N 0.895, P 0.572, L 0.613, F 0.411, T 0.908, Y 0.669, H 1.07
G219: V 1.14, T 1.01, E 0.654, L 1.14, P 0.556, H 0.761, N 0.637, S 0.761, C 1.5, I 1.35, W 0.981, D 0.836, A 1.13, Q 0.0466, F 0.625, Y 1.14, M 0.958, R 0.858
E216: V 0.252, A 0.655, I -1.75, L 1.42, C 0.558, N 1.75, G 1.09, K 1.2, W 0.395, H 0.489, R -0.537, D 0.741, S 1.33, Q 0.964
T232: D 1.19, C 0.594, A 0.926
G218: Y 0.677, P 0.651, C 0.887, E -0.051, I 1.14, T 1.11, H 1.03, F 0.259, S 0.817, V 1.1, K 0.888, M 1.01, D 0.885, A 1.02, Q -0.344, N 0.111, L 1.01, W -0.332, R 1.13
Y231: S 0.49, C 0.601, F 1.05, D 0.734, I 0.701, Q 0.625, T 0.493, H 0.724, P 0.54, R 0.669, V 0.771, L 0.803, M 0.624, K 0.204, E 0.639, A 0.676, N 0.775, G 0.475, W 1.05
V226: G 0.814, C 0.347, R 0.531, T 0.799, M 0.67, I 0.848, N -0.139, L 1.08, E 0.0129, W 1.21, S 0.403, Y 0.994, H 0.579, A 0.677, Q 0.554, D 0.724, F 0.889, P 1.09, K 0.148
K221: L 0.328, E 1.1, I -0.82, C 0.921, G 0.945, H 0.705, P 0.766, M 1.02, V 0.663, Q 0.621, Y 0.0318, W 0.337, D 0.706, A -0.576, N 0.995, S 0.464, R 0.95, F -0.0481
E229: Y -0.363, T -0.101, A -0.0287, N 0.433, K 0.571, R 0.148, I 0.102, V 0.158, Q 1.13, L 0.0432, W -0.162, D 0.886, M 0.122, P 0.679, S 0.662, H 0.361, C 0.0314, F 0.704, G 1.15
Q225: C -0.424, S 0.993, E 1.13, N 0.762, K 1.23, G 0.56, V -0.115, M -0.00432, F -0.00208, H 0.951, D 0.269, L -0.23, A 0.99, W 0.582, I 0.248, T 0.688, Y -0.259, P 0.572, R 0.916
S220: C 1.21, D 0.488, A 0.262, T 0.905, G 0.764, E 1.14, Y -0.203, Q -1.55, I 0.449, W -1.37, R 1.06, P -0.127, F 0.305, V 0.743, M 1.16, L 1.04
K222: W -0.0951, H 0.644, F -0.315, E 0.916, N 0.679, R 1.05, G 0.393, C -0.312, T 0.149, P 0.845, M -0.00949, I 0.0162, L 0.0335, A 0.955, D 0.771, S 0.847, Q 1.11, V 0.137, Y -1.15
I224: F 0.959, L 0.689, Q 0.197, V 0.58, W 1.11, C 0.709, G 0.296, T 0.559, K 0.822, P 0.419, M 1.07, A 0.495, E 1, N 0.402, H 0.512, D 0.864, R 0.498, Y 0.84, S 0.599
